OD450 (Normalised to BSA) data for three substances are collected here from patent publication US20220363738A1.

The assay has as its target purified fragment of human Calnexin containing Amino acid 1-481 fused to human FC region (FC-CNX) (human) (UniProt P27824). The assay can be described thus: ELISA, coat CNX-Fc (figure title), antibody 1 ug/ml, HRP secondary, OD450 normalised to BSA.

Chain of purified fragment of human Calnexin containing Amino acid 1-481 fused to human FC region (FC-CNX) (human) (P27824 21-481 limits assumed, form in doubt): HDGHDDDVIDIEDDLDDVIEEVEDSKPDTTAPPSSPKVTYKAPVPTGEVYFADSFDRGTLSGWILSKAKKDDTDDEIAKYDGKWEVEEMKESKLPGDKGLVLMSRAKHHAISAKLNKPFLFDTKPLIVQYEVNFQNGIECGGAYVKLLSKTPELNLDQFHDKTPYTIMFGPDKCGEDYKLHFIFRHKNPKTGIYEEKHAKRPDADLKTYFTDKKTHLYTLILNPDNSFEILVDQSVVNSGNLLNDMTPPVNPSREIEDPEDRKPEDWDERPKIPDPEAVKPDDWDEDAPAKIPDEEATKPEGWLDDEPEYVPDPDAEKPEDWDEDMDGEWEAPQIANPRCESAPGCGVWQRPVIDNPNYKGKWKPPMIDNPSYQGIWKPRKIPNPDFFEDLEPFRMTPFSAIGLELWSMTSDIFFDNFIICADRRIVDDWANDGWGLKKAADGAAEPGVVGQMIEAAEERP

Regarding ctrl hIgG (antibody), the OD450 (Normalised to BSA) is 0.51.

The substance CRT ab92516 (antibody) gave an OD450 (Normalised to BSA) of 0.9. In the case of CNX ab10286 (antibody) it was 4.79.
